Source: patent publication US11898181B2, “Genetically modified isopropylmalate isomerase enzyme complexes and processes to prepare elongated 2-ketoacids and C5-C10 compounds therewith” (Dow Global Technologies LLC, priority 2017, dated 2022)

How the values were obtained:
Experiment in all cases: Kinetic analysis of LeuCD (LeuB-coupled HTP assay), Variant 3 (wild type)
Assay type in all cases: biochemical, E. coli
[1] = substrate: CCCCC(O)(CC(=O)O)C(=O)O; settings: other: 2-BM 0-5 mM, pH 8, room temperature, 30 min
[2] = substrate: CCCCCCC(O)(CC(=O)O)C(=O)O; settings: other: 2-HM 0-1.6 mM, pH 8, room temperature, 30 min
[3] = substrate: CC(C)[C@@](O)(CC(=O)O)C(=O)O; settings: other: 2-IPM 0-0.625 mM, pH 8, room temperature, 30 min

B1: E. coli isopropylmalate isomerase LeuCD complex, wild type (Variant 3: Wt LeuC, SEQ ID NO: 1 + Wt LeuD, SEQ ID NO: 2) (Escherichia coli K-12) (protein)
chain 1: MGSSHHHHHHSSGMAKTLYEKLFDAHVVYEAENETPLLYIDRHLVHEVTSPQAFDGLRAHGRPVRQPGKTFATMDHNVSTQTKDINACGEMARIQMQELIKNCKEFGVELYDLNHPYQGIVHVMGPEQGVTLPGMTIVCGDSHTATHGAFGALAFGIGTSEVEHVLATQTLKQGRAKTMKIEVQGKAAPGITAKDIVLAIIGKTGSAGGTGHVVEFCGEAIRDLSMEGRMTLCNMAIEMGAKAGLVAPDETTFNYVKGRLHAPKGKDFDDAVAYWKTLQTDEGATFDTVVTLQAEEISPQVTWGTNPGQVISVNDNIPDPASFADPVERASAEKALAYMGLKPGIPLTEVAIDKVFIGSCTNSRIEDLRAAAEIAKGRKVAPGVQALVVPGSGPVKAQAEAEGLDKIFIEAGFEWRLPGCSMCLAMNNDRLNPGERCASTSNRNFEGRQGRGGRTHLVSPAMAAAAAVTGHFADIRNIK
chain 2: MAEKFIKHTGLVVPLDAANVDTDAIIPKQFLQKVTRTGFGAHLFNDWRFLDEKGQQPNPDFVLNFPQYQGASILLARENFGCGSSREHAPWALTDYGFKVVIAPSFADIFYGNSFNNQLLPVKLSDAEVDELFALVKANPGIHFDVDLEAQEVKAGEKTYRFTIDAFRRHCMMNGLDSIGLTLQHDDAIAAYEAKQPAFMN
notes: expression of a His-tagged LeuC having 13 additional amino acids on the N-terminus; made in house; host or cells: E. coli BL21(DE3), whole cell lysate
[1]
  Km: 1330 ± 140 µM
  kcat: 1.7 ± 0.0897 s⁻¹
  kcat/Km: 1291 ± 154 M⁻¹ s⁻¹
[2]
  kcat/Km: 1.1 ± 0.28 M⁻¹ s⁻¹
[3]
  Km: 68 ± 10 µM
  kcat: 0.4239 ± 0.0161 s⁻¹
  kcat/Km: 6212.8 ± 659.7 M⁻¹ s⁻¹
